What all share (assay type): cell-based, human
Experiment [1] concerns A431 cells. Nature of the experiment: Cell growth assay, three-dimensional collagen gel culture and spheroid formation. To be noted: three-dimensional culture in collagen gel and anchorage-independent spheroid formation. The procedure:
Collagen I gel (3 mg/ml, Nitta Gelatin) extracted in acetic acid, a neutralization buffer (50 mM NaOH, 260 mM NaHCO3, 200 mM HEPES), and each of the two types of cells were mixed and the resulting mixture was seeded to satisfy 2.5×10^4/250 μl/48 well plate. After completion of the polymerization of the collagen gel, they were cultured for 7 days in 400 μl/well of a DMEM/1% FCS culture solution. After culturing, the collagen gel was dissolved with 0.1% collagenase. The cells were treated with trypsin to dissociate them into single cells and the number of the cells was counted using a Coulter counter.
The two types of the cells were each detached with trypsin from one another and the number of the cells was counted by a hemocytometer. They were seeded in a low adhesion plate (PrimeSurface (registered trademark), Sumitomo Bakelite) of each cell protein (100 cells/100 μl/96 well plate) and cultured for 7 days in a DMEM/1% FCS culture solution. The number of spheroid formation cells was obtained from their volume (½×long diameter×(short diameter)^2).

In the next experiment the test system is RhoG. Nature of the experiment: RhoG activity pull-down with ELMO2/GST beads in MT1-MMP knockdown A431 cells. To be noted: MT1-MMP knockdown A431 cells after EGF stimulation. An excerpt:
By using A431 cells whose MT1-MMP expression was knocked down by siRNA, an influence of Ephrin-A1-dependent EphA2 on an RhoG signaling downstream of the EGF receptor was studied.
A fusion protein of ELMO2 and GST, each serving as an effector of RhoG, was solid phased on glutathione beads and the RhoG activity in a cell suspension solubilized with RIPA was detected by pull-down using ELMO2/GST beads as a bait. Co-precipitated RhoG was detected using an anti-RhoG polyclonal antibody (Santa Cruz) and the RhoG activity was quantified by densitometry with Image J. An expression vector of ELMO2 was kindly given by Chihiro Sasakawa, professor of Division of Bacterial Infection, Medical Institute of Science, The University of Tokyo.

The test system of experiment [2] is A431 cells. The experiment is described as follows: Migration activity of EGF-stimulated cells in a transwell chamber. To be noted: EGF-stimulated MT1-MMP knockdown cells. The text has this: No RhoG activity was detected from the cells not treated with EGF (A). […] Similar results were found in the SCC61 cells (C).

“Also recorded” adds a separate entry of the source.

B1: Ephrin-A1: typical ligand of EphA2 (protein)
chain: DRHTVFWNSSNPKFRNEDYTIHVQLNDYVDIICPHYEDHSVADAAMEQYILYLVEHEEYQLCQPQSKDQVRWQCNRPSAKHGPEKLSEKFQRFTPFTLGKEFKEGHSYYYISKPIHQHEDRCLRLKVTVSGKITHSPQAHDNPQEKRLAADDPEVRVLHSIGHS
With B1, in the experiment with A431 cells [1], the “growth of MT1-MMP knockdown cells” value is reported as “significantly suppressed”. In addition, the RhoG activity result in the experiment with RhoG was “significant decrease; also recorded: significantly reduced”. Also, the cell migration result in the experiment on A431 cells [2] is listed as “significantly suppressed”.

The values are drawn from patent US20190064149A1, “CANCER EXAMINATION METHOD AND EXAMINATION KIT” (THE UNIVERSITY OF TOKYO, priority 2013, published 2019).
